Data: patent publication US7521047 (GPC BIOTECH, dated 2009)
Numbering of substitutions follows the chain as printed. Values belong to the binder of their own block, whether it stands above or below them.

How the values were obtained:
[1] = target: HLA-DR on MHH-CALL-4 cells (human); assay: cell-based or functional assay
[2] = target: T1, chimeric 0401-IE class II molecule on cells of transgenic mice (human/murine chimera); assay: cell-based or functional assay
[3] = target: T2, human MHC class II DR protein (DRA*0101/DRB1*0401), purified from PRIESS cells (human, UniProt P01903 26-254; P01911 30-266, limits assumed); assay: SPR (BIAcore), MHCII on CM5 chip
T2 construct: mature; also called HLA-DR protein; MHCII
T2 MHC II alpha: not shown
T2 MHC II beta: not shown

[4] = target: T2, human MHC class II DR protein …; assay: SPR (BIAcore), 3 preparations on 3 chips (500, 4000, 3000 RU)
[5] = target: T2, human MHC class II DR protein …; assay: ELISA, coated antigen, Fab 100 ng/well, read at 370 nm
Procedure: After washing in PBS the anti-human IgG F(ab')_2-peroxidase-conjugate at a 1:10,000 dilution in TBS (supplemented with 5% w/v non-fat drymilk/0.05% v/v Tween 20) was added to each well for 1 h. Final washes were carried out in PBS followed the addition the substrate POD (Roche).

[6] = target: T2, human MHC class II DR protein …; assay: BiaCore, IgG4
Procedure: The affinities for anti-HLA antibody fragments of the invention were measured as follows. All measurements were conducted in HBS buffer (20 mM HEPES, 150 mM NaCl, pH 7.4) at a flow rate of 20 µl/min at 25° C. on a BIAcore3000 instrument (Biacore AB, Sweden). MHC class II DR protein (prepared as example 1) was diluted in 100 mM sodium acetate pH 4.5 to a concentration of […], and coupled to a CM5 chip (Biacore AB) using standard EDC-NHS coupling chemistry with subsequent ethanolamine treatment as manufacturers directions. The coating density of MHCII was adjusted to between 500 and 4000 RU. Affinities were measured by injection of 5 different concentrations of the different antibodies and using the standard software of the Biacore instrument. Regeneration of the coupled surface was achieved using 10 mM glycine pH 2.3 and 7.5 mM NaOH.

[7] = target: T1, chimeric 0401-IE class II molecule on …; assay: cell-based or functional assay; remark: listed apart in the source
[8] = target: T3, HLA-DR (DRA*0101/DRB1*0401) on PRIESS cells (human, UniProt P01903 26-254; P01911 30-266); assay: cell-based or functional assay
T3 MHC II alpha: not shown
T3 MHC II beta: not shown

HLA-DR on ARH-77 cells = HLA-DR on ARH-77 cells (human); assay: cell-based or functional assay
[9] = target: HLA-DR on GRANTA-519 cells (human); assay: cell-based or functional assay
[10] = target: HLA-DR on KARPAS-422 cells (human); assay: cell-based or functional assay
[11] = target: HLA-DR on KARPAS-299 cells (human); assay: cell-based or functional assay
HLA-DR on DOHH-2 cells = HLA-DR on DOHH-2 cells (human); assay: cell-based or functional assay
HLA-DR on SR-786 cells = HLA-DR on SR-786 cells (human); assay: cell-based or functional assay
[12] = target: HLA-DR on MHH-CALL-4 cells (human); assay: cell-based or functional assay; remark: listed apart in the source
HLA-DR on MN-60 cells = HLA-DR on MN-60 cells (human); assay: cell-based or functional assay
HLA-DR on BJAB cells = HLA-DR on BJAB cells (human); assay: cell-based or functional assay
HLA-DR on RAJI cells = HLA-DR on RAJI cells (human); assay: cell-based or functional assay
HLA-DR on L-428 cells = HLA-DR on L-428 cells (human); assay: cell-based or functional assay
HLA-DR on HDLM-2 cells = HLA-DR on HDLM-2 cells (human); assay: cell-based or functional assay
HLA-DR on HD-MY-Z cells = HLA-DR on HD-MY-Z cells (human); assay: cell-based or functional assay
HLA-DR on KM-H2 cells = HLA-DR on KM-H2 cells (human); assay: cell-based or functional assay
HLA-DR on L1236 cells = HLA-DR on L1236 cells (human); assay: cell-based or functional assay
HLA-DR on BONNA-12 cells = HLA-DR on BONNA-12 cells (human); assay: cell-based or functional assay
HLA-DR on HC-1 cells = HLA-DR on HC-1 cells (human); assay: cell-based or functional assay
HLA-DR on NALM-1 cells = HLA-DR on NALM-1 cells (human); assay: cell-based or functional assay
HLA-DR on L-363 cells = HLA-DR on L-363 cells (human); assay: cell-based or functional assay
HLA-DR on EOL-1 cells = HLA-DR on EOL-1 cells (human); assay: cell-based or functional assay
HLA-DR on LP-1 cells = HLA-DR on LP-1 cells (human); assay: cell-based or functional assay
[13] = target: HLA-DR on RPMI-8226 cells (human); assay: cell-based or functional assay
[14] = target: HLA-DR on MHH-PREB-1 cells (human); assay: cell-based or functional assay
[15] = target: T3, HLA-DR (DRA*0101/DRB1*0401) on PRIESS …; assay: cell-based or functional assay
[16] = target: T2, human MHC class II DR protein …; assay: SPR (BIAcore), IgG4 over MHCII on CM5 chip
BSA = target: T4, BSA (bovine, UniProt P02769 25-607); assay: ELISA, purified coated protein, OD at 370 nm minus background
T4 construct: negative control antigen; also called bovine serum albumine
T4 sequence (P02769 25-607 limits assumed): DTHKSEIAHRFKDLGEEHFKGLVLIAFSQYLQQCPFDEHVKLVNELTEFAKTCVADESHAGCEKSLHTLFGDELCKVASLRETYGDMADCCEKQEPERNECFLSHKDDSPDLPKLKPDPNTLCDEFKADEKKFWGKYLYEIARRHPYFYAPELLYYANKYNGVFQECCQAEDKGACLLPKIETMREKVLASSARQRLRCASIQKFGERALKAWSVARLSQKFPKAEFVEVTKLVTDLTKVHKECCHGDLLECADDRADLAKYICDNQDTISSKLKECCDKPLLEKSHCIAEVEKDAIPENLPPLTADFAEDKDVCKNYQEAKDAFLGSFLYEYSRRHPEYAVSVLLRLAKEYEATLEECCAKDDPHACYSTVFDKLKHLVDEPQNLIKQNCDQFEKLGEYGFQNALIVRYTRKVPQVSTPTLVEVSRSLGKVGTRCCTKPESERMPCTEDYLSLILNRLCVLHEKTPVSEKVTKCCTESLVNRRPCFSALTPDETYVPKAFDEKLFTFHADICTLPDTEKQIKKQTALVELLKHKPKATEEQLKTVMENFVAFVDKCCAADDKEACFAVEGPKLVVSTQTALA

IC50 of inhibition of IL-2 secretion from T-Hyb 1 cells [2]: 20 nM (half the concentration of the Fab)
Maximum inhibition(%) of IL-2 secretion [2]: 100%
Kd [3]: 58.6 nM
koff [3]: 0.00548 s⁻¹
kon [3]: 96000 M⁻¹ s⁻¹
Kd [4]: 58.6 nM
koff [4]: 0.0055 s⁻¹
kon [4]: 96000 M⁻¹ s⁻¹
ELISA signal [5]: 1.31
B1: MS-GPC-8-6 Fab (Fab, V domains shown)
VH: QVQLKESGPALVKPTQTLTLTCTFSGFSLSTSGVGVGWIRQPPGKALEWLALIDWDDDKYYSTSLKTRLTISKDTSKNQVVLTMTNMDPVDTATYYCARSPRYRGAFDYWGQGTLVTVSS
VL: DIVLTQPPSVSGAPGQRVTISCSGSSSNIGSNYVSWYQQLPGTAPKLLIYDNNQRPSGVPDRFSGSKSGTSASLAITGLQSEDEADYYCQSYDYDHYVFGGGTKLTVLG
notes: Fab: VH-CH1 with FLAG tag and STREP tag II, VL-CL; VH residue 1 is Q in Fab
maximum capacity to kill MHH-Call 4 cells [1]: 76%

Kd [6]: 0.6 nM
koff [6]: 0.00041 s⁻¹
IC50 value for inhibition of T cell proliferation [7]: 20 nM
IC50 of inhibition of IL-2 secretion from T-Hyb 1 cells [2]: 0.28 nM
Maximum inhibition(%) of IL-2 secretion [2]: 100%
Kd [16]: 0.31 nM
koff [16]: 3.1e-05 s⁻¹
kon [16]: 110000 M⁻¹ s⁻¹
binding result (BSA): no binding
B2: MS-GPC-8-27-41 IgG4 (antibody, V domains shown)
VH: B1 VH
VL: B1 VL with S26E, S31N, S35Q, Y94M, D95N, H96V, Y97H
notes: also called 1D09C3; IgG form of MS-GPC-8-27-41
% Killing by mAb, 50 nM, 4 h [8]: 88%
% Killing by mAb, 50 nM, 4 h (HLA-DR on ARH-77 cells): 85%
% Killing by mAb, 50 nM, 4 h [9]: 78%
% Killing by mAb, 50 nM, 4 h [10]: 66%
% Killing by mAb, 50 nM, 4 h [11]: 82%
% Killing by mAb, 50 nM, 4 h (HLA-DR on DOHH-2 cells): 59%
% Killing by mAb, 50 nM, 4 h (HLA-DR on SR-786 cells): 53%
% Killing by mAb, 50 nM, 4 h [12]: 63%
% Killing by mAb, 50 nM, 4 h (HLA-DR on MN-60 cells): 69%
% Killing by mAb, 50 nM, 4 h (HLA-DR on BJAB cells): 71%
% Killing by mAb, 50 nM, 4 h (HLA-DR on RAJI cells): 84%
% Killing by mAb, 50 nM, 4 h (HLA-DR on L-428 cells): 91%
% Killing by mAb, 50 nM, 4 h (HLA-DR on HDLM-2 cells): 88%
% Killing by mAb, 50 nM, 4 h (HLA-DR on HD-MY-Z cells): 69%
% Killing by mAb, 50 nM, 4 h (HLA-DR on KM-H2 cells): 86%
% Killing by mAb, 50 nM, 4 h (HLA-DR on L1236 cells): 63%
% Killing by mAb, 50 nM, 4 h (HLA-DR on BONNA-12 cells): 92%
% Killing by mAb, 50 nM, 4 h (HLA-DR on HC-1 cells): 93%
% Killing by mAb, 50 nM, 4 h (HLA-DR on NALM-1 cells): 82%
% Killing by mAb, 50 nM, 4 h (HLA-DR on L-363 cells): 26%
% Killing by mAb, 50 nM, 4 h (HLA-DR on EOL-1 cells): 69%
% Killing by mAb, 50 nM, 4 h (HLA-DR on LP-1 cells): 73%
% Killing by mAb, 50 nM, 4 h [13]: 29%
% Killing by mAb, 50 nM, 4 h [14]: 4%
EC50 of cell killing, IgG4 [15]: 1.1 nM
